Laboratory results taken from the supplement of paper PMC9112550, “Optimization of the antimicrobial peptide Bac7 by deep mutational scanning” (BMC Biology, 2022).

test system: Escherichia coli TOP10; experiment: shrunken log2 fold change of peptide-encoding DNA abundance (4.5 h post-induction vs induction); higher = less antimicrobial activity (less host growth inhibition); conditions: time post-induction: 4.5 h; library: site-saturation at positions 5, 18, 19, 20
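Also: peptides expressed intracellularly from a pBAD plasmid library in pooled LB shake-flask culture, induced with 0.3% L-arabinose, DNA abundance read by NGS, three biological replicates, DESeq2 with apeglm shrinkage.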

| Sequence | shrunken log2 fold change |
| --- | --- |
| RRIRKRPPRLPRPRPRPVFHPRP | 0.818 |
| RRIRERPPRLPRPRPRPHVMPRP | -0.957 |
| RRIRHRPPRLPRPRPRPDWDPRP | -0.0204 |
| RRIRPRPPRLPRPRPRPWKYPRP | -0.269 |
| RRIRKRPPRLPRPRPRPYRDPRP | -0.0176 |
| RRIRSRPPRLPRPRPRPSVRPRP | -0.0911 |
| RRIRRRPPRLPRPRPRPEINPRP | -0.0385 |
| RRIRFRPPRLPRPRPRPCEIPRP | -0.348 |
| RRIRLRPPRLPRPRPRPWPTPRP | 0.0538 |
| RRIRMRPPRLPRPRPRPIFYPRP | -0.106 |
| RRIRTRPPRLPRPRPRPFETPRP | -0.117 |
| RRIRHRPPRLPRPRPRPPLTPRP | 0.162 |
| RRIRCRPPRLPRPRPRPTDQPRP | 0.38 |
| RRIRPRPPRLPRPRPRPPEGPRP | 0.436 |
| RRIRVRPPRLPRPRPRPKCMPRP | 0.0847 |
| RRIRQRPPRLPRPRPRPDAGPRP | -0.0738 |
| RRIRMRPPRLPRPRPRPFQIPRP | -0.0803 |
| RRIRFRPPRLPRPRPRPNKHPRP | -0.348 |
| RRIRLRPPRLPRPRPRPKQTPRP | 0.0369 |
| RRIRRRPPRLPRPRPRPEAEPRP | 0.853 |
| RRIRRRPPRLPRPRPRPSCQPRP | -0.0699 |
| RRIRCRPPRLPRPRPRPTKAPRP | 0.209 |
| RRIRMRPPRLPRPRPRPYEKPRP | -0.111 |
| RRIRQRPPRLPRPRPRPDRRPRP | 0.00167 |
| RRIRTRPPRLPRPRPRPSCRPRP | -0.219 |

| Sequence | shrunken log2 fold change |
| --- | --- |
| RRIRTRPPRLPRPRPRPESSPRP | -0.0341 |
| RRIRGRPPRLPRPRPRPNFMPRP | 0.0686 |
| RRIRTRPPRLPRPRPRPDQPPRP | 0.00486 |
| RRIRFRPPRLPRPRPRPLCNPRP | -0.398 |
| RRIRGRPPRLPRPRPRPDGLPRP | 0.053 |
| RRIRARPPRLPRPRPRPEDFPRP | 1.11 |
| RRIRIRPPRLPRPRPRPLSMPRP | -0.395 |
| RRIRCRPPRLPRPRPRPYGIPRP | -0.128 |
| RRIRKRPPRLPRPRPRPQKFPRP | 0.0144 |
| RRIRNRPPRLPRPRPRPTWEPRP | 0.102 |
| RRIRRRPPRLPRPRPRPSIQPRP | -0.0217 |
| RRIRNRPPRLPRPRPRPMNVPRP | -0.00101 |
| RRIRTRPPRLPRPRPRPYIYPRP | -0.706 |
| RRIRLRPPRLPRPRPRPLCWPRP | 0.487 |
| RRIRCRPPRLPRPRPRPQVSPRP | -0.0343 |
| RRIRYRPPRLPRPRPRPELCPRP | -0.403 |
| RRIRIRPPRLPRPRPRPGVLPRP | -0.0531 |
| RRIRMRPPRLPRPRPRPARNPRP | -0.0385 |
| RRIRGRPPRLPRPRPRPGNHPRP | -0.147 |
| RRIRWRPPRLPRPRPRPSRKPRP | 0.244 |
| RRIRCRPPRLPRPRPRPCATPRP | 0.16 |
| RRIRNRPPRLPRPRPRPHWQPRP | -0.115 |
| RRIRMRPPRLPRPRPRPMGEPRP | 0.792 |
| RRIRKRPPRLPRPRPRPYYIPRP | -0.372 |
| RRIRCRPPRLPRPRPRPCIRPRP | -0.145 |

| Sequence | shrunken log2 fold change |
| --- | --- |
| RRIRGRPPRLPRPRPRPGNMPRP | -0.0382 |
| RRIRTRPPRLPRPRPRPIHEPRP | -0.259 |
| RRIRGRPPRLPRPRPRPNDVPRP | -0.208 |
| RRIRWRPPRLPRPRPRPEQCPRP | -0.0195 |
| RRIRLRPPRLPRPRPRPFEPPRP | 0.00273 |
| RRIRRRPPRLPRPRPRPCTAPRP | 0.866 |
| RRIRDRPPRLPRPRPRPMIRPRP | -0.0188 |
| RRIRIRPPRLPRPRPRPIFRPRP | -0.013 |
| RRIRARPPRLPRPRPRPVPLPRP | 0.263 |
| RRIRSRPPRLPRPRPRPHAQPRP | 0.0587 |
| RRIRARPPRLPRPRPRPEFRPRP | 0.327 |
| RRIRFRPPRLPRPRPRPFWEPRP | -0.193 |
| RRIRPRPPRLPRPRPRPVYRPRP | -0.166 |
| RRIRQRPPRLPRPRPRPADMPRP | -0.0927 |
| RRIRFRPPRLPRPRPRPEDMPRP | 0.000714 |
| RRIRIRPPRLPRPRPRPWCCPRP | -0.481 |
| RRIRPRPPRLPRPRPRPIFIPRP | -0.389 |
| RRIRQRPPRLPRPRPRPSLAPRP | 0.404 |
| RRIRVRPPRLPRPRPRPKSFPRP | 0.217 |
| RRIRARPPRLPRPRPRPDMRPRP | 0.737 |
| RRIRYRPPRLPRPRPRPAPSPRP | -0.0165 |
| RRIRKRPPRLPRPRPRPHTIPRP | 0.00577 |
| RRIRRRPPRLPRPRPRPDNLPRP | 0.000421 |
| RRIRWRPPRLPRPRPRPNSNPRP | -0.583 |
| RRIRMRPPRLPRPRPRPSDYPRP | 0.0806 |
